Reference: US20220259318A1 (Hoffmann-La Roche, published 2022)
Numbering of substitutions follows the chain as printed.

How the values were obtained:
human GPRC5D [1] = target: T1, human GPRC5D (human, UniProt Q9NZD1 1-345); assay: cell-based or functional assay
human GPRC5D [2] = target: T1, human GPRC5D; assay: cell-based or functional assay; remark: listed apart in the source
human GPRC5D [3] = target: T1, human GPRC5D; assay: cell-based or functional assay; remark: listed apart in the source
human GPRC5D [4] = target: T1, human GPRC5D; assay: cell-based or functional assay; remark: listed apart in the source
human GPRC5D [5] = target: T1, human GPRC5D; assay: flow cytometry on OPM-2 cells, assay replicate 1
Procedure: (§1) Cells were re-suspended in PBS at 0.5 Mio cells per ml. Next, 0.05 Mio cells were plated per well of a round-bottom 96-well-plate, centrifuged and supernatants were discarded. Cells were stained with zombie aqua viability stain (BioLegend #423102, pre-diluted 1:400), containing Fc blocking (BioLegend #422302, prediluted 1:400) for 20 minutes in a total volume of 50 ul per well. […] Assay plates were centrifuged and supernatants were discarded.
(§2) Thereafter, cells were resuspended by smooth vortexing and incubated for another 30 min at 4° C. in a total of 25 μl per well, containing 500 nM of the secondary antibody (aPGLALA mulG2b Alexa 647, produced inhouse) in FACS buffer. Cells were washed once and analyzed on a BD flow cytometer, equipped with FACS Diva. Binding curves and EC50 values were obtained using GraphPadPrism6. The EC50 values of assay replicate 1 correspond to the graphs shown in FIG. 25A, FIG. 25B and FIG. 25C. The EC50 values of assay replicate 2 correspond to the graphs shown in FIG. 25D, FIG. 25E and FIG. 25F. The EC50 values of assay replicate 3 correspond to the graphs shown in FIG. 25G, FIG. 25H and FIG. 25I.

human GPRC5D [6] = target: T1, human GPRC5D; assay: flow cytometry on OPM-2 cells, assay replicate 2
Procedure: as §1, §2

human GPRC5D [7] = target: T1, human GPRC5D; assay: flow cytometry on OPM-2 cells, assay replicate 3
Procedure: as §1, §2

human GPRC5D [8] = target: T1, human GPRC5D; assay: flow cytometry on NCI-H929 cells, assay replicate 1
Procedure: as §1, §2

human GPRC5D [9] = target: T1, human GPRC5D; assay: flow cytometry on NCI-H929 cells, assay replicate 2
Procedure: as §1, §2

human GPRC5D [10] = target: T1, human GPRC5D; assay: flow cytometry on NCI-H929 cells, assay replicate 3
Procedure: as §1, §2

human GPRC5D [11] = target: T1, human GPRC5D; assay: flow cytometry on RPMI-8226 cells, assay replicate 1
Procedure: as §1, §2

human GPRC5D [12] = target: T1, human GPRC5D; assay: flow cytometry on RPMI-8226 cells, assay replicate 2
Procedure: as §1, §2

human GPRC5D [13] = target: T1, human GPRC5D; assay: flow cytometry on RPMI-8226 cells, assay replicate 3
Procedure: as §1, §2

human GPRC5D [14] = target: T1, human GPRC5D; assay: flow cytometry on NCI-H929 cells; paragraph 550 says these values were falsely calculated by a factor of 10 (too low)
Procedure: (§3) To measure the binding to GPRC5D, we performed a flow cytometry-based binding assay on reported multiple myeloma cell lines (Lombardi et al., Molecular characterization of human multiple myeloma cell lines by integrative genomics: insights into the biology of the disease; Genes Chromosomes Cancer. 2007 March; 46(3):226-38). The cell line NCI-H929 (ATCC® CRL-9068) was cultured in RPMI 1640 with Glutamax medium (Gibco) supplemented with 10% FBS, 1× Penicillin/Streptomycin (Gibco), 1× Sodium Pyruvate (Gibco) and 50 μM beta-Mercaptoethanol (Gibco). Jurkat-NFAT reporter cells (a CD3-expressing human acute lymphatic leukemia reporter cell line with a NFAT promoter, GloResponse Jurkat NFAT-RE-luc2P, Promega #CS176501) were cultured in RPMI 1640, containing 2 g/l Glucose, 2 g/l NaHCO₃, 10% FCS, 25 mM HEPES, 2 mM L-Glutamine, 1×NEAA, 1× Sodium-pyruvate and 200 μg/ml Hygromycin B.
(§4) Flow cytometry acquisition was performed on a custom-designed BD Biosciences Fortessa and analyzed using BD Diva. EC50 values were calculated, using GraphPad Prism software.

human CD3 = target: T2, human CD3 (human, UniProt P07766 23-207); assay: flow cytometry on Jurkat-NFAT cells; paragraph 550 says these values were falsely calculated by a factor of 10 (too low)
T2 construct: Expressed on Jurkat-NFAT reporter cells as part of the TCR/CD3 complex; also called hCD3; CD3 epsilon
T2 sequence (P07766 23-207 limits assumed): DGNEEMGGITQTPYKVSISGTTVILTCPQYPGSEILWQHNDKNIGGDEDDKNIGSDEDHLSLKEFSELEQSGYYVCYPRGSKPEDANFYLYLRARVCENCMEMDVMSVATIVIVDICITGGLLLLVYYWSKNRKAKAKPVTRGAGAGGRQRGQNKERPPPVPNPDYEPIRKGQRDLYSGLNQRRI
Procedure: as §3, §4

BCMA [15] = target: T3, BCMA (UniProt Q02223 1-184, limits assumed); assay: cell-based or functional assay
T3 sequence (looked up): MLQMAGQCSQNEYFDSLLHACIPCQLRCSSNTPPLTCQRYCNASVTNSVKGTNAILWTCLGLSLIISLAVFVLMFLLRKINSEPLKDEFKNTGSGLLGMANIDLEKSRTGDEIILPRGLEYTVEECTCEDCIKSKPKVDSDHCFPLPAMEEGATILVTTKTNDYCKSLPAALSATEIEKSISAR

BCMA [16] = target: T3, BCMA; assay: cell-based or functional assay; remark: listed apart in the source
BCMA [17] = target: T3, BCMA; assay: cell-based or functional assay; remark: listed apart in the source
BCMA [18] = target: T3, BCMA; assay: cell-based or functional assay; remark: listed apart in the source

T1 sequence (Q9NZD1 whole entry): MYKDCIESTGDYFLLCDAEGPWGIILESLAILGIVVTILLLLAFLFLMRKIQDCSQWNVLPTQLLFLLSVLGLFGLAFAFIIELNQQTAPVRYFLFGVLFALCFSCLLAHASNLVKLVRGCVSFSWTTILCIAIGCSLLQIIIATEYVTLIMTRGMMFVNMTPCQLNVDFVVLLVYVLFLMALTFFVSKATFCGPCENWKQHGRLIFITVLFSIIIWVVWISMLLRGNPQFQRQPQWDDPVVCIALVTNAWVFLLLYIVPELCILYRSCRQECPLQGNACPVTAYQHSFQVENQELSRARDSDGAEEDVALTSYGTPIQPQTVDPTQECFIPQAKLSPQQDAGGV

B1: 5E11(VH1c + VL2b)-C122-TCB (P1AE6625) (bispecific antibody, human IgG1, kappa, L234A L235A)
light 1: EIVLTQSPGTLSLSPGERATLSCRASQSVSISGINLMNWYQQKPGQQPKLLIYHASILASGIPDRFSGSGSGTDFTLTISRLEPEDFAVYYCQQTRESPLTFGQGTRLEIKRTVAAPSVFIFPPSDRKLKSGTASVVCLLNNFYPREAKVQWKVDNALQSGNSQESVTEQDSKDSTYSLSSTLTLSKADYEKHKVYACEVTHQGLSSPVTKSFNRGEC
light 2: EVQLLESGGGLVQPGGSLRLSCAASGFQFSSYAMNWVRQAPGKGLEWVSRIRSKYNNYATYYADSVKGRFTISRDDSKNTLYLQMNSLRAEDTAVYYCVRHTTFPSSYVSYYGYWGQGTLVTVSSASVAAPSVFIFPPSDEQLKSGTASVVCLLNNFYPREAKVQWKVDNALQSGNSQESVTEQDSKDSTYSLSSTLTLSKADYEKHKVYACEVTHQGLSSPVTKSFNRGEC
heavy 1: EVQLLESGGGLVQPGGSLRLSCAASGFTFSKYAMAWVRQAPGKGLEWVASISTGGVNTYYADSVKGRFTISRDNSKNTLYLQMNSLRAEDTAVYYCATHTGDYFDYWGQGTMVTVSSASTKGPSVFPLAPSSKSTSGGTAALGCLVEDYFPEPVTVSWNSGALTSGVHTFPAVLQSSGLYSLSSVVTVPSSSLGTQTYICNVNHKPSNTKVDEKVEPKSCDKTHTCPPCPAPEAAGGPSVFLFPPKPKDTLMISRTPEVTCVVVDVSHEDPEVKFNWYVDGVEVHNAKTKPREEQYNSTYRVVSVLTVLHQDWLNGKEYKCKVSNKALGAPIEKTISKAKGQPREPQVCTLPPSRDELTKNQVSLSCAVKGFYPSDIAVEWESNGQPENNYKTTPPVLDSDGSFFLVSKLTVDKSRWQQGNVFSCSVMHEALHNHYTQKSLSLSPGK
heavy 2: not shown
notes: 2+1 TCB: LC1 (anti-GPRC5D), LC2 (anti-CD3 crossed), HC1 Fc hole, HC2 Fc knob
- AUC, activation of Jurkat-NFAT reporter cells in presence of RPMI-8226 cells (human GPRC5D [1]): 572000
- EC50 (pM), activation of Jurkat-NFAT reporter cells in presence of RPMI-8226 cells (human GPRC5D [1]): 40 pM
- EC50 (pM), TCB-mediated tumor cell lysis, AMO-1 (human GPRC5D [2]): 8.3 pM
- EC50 (pM), TCB-mediated tumor cell lysis, IM-9 (human GPRC5D [2]): 267 pM
- EC50 (pM), TCB-mediated tumor cell lysis, LP-1 (human GPRC5D [2]): 7.99 pM
- EC50 (pM), TCB-mediated tumor cell lysis, NCI-H929 (human GPRC5D [2]): 0.597 pM
- AUC, TCB-mediated tumor cell lysis, AMO-1 (human GPRC5D [3]): 8.01e+07
- AUC, TCB-mediated tumor cell lysis, IM-9 (human GPRC5D [3]): 9.27e+06
- AUC, TCB-mediated tumor cell lysis, LP-1 (human GPRC5D [3]): 1.54e+07
- AUC, TCB-mediated tumor cell lysis, NCI-H929 (human GPRC5D [3]): 1.79e+07
- EC50 (pM), activation of autologous T-cells (CD69 on CD8 T cells) with a primary MM sample (human GPRC5D [4]): 14.8 pM
- EC50 (human GPRC5D [5]): 34.5 nM
- EC50 (human GPRC5D [6]): 75.5 nM
- EC50 (human GPRC5D [7]): 54.2 nM
- EC50 (human GPRC5D [8]): 75.8 nM
- EC50 (human GPRC5D [9]): ~123 nM
- EC50 (human GPRC5D [10]): ~158 nM
- EC50 (human GPRC5D [11]): 26.8 nM
- EC50 (human GPRC5D [12]): 20.4 nM
- EC50 (human GPRC5D [13]): 55 nM
- EC50 (human GPRC5D [14]): 1.15 nM
- EC50 (human CD3): 11.5 nM

B2: BCMA-TCB (bispecific antibody, human IgG1, kappa, L234A L235A)
light 1: EIVLTQSPGTLSLSPGERATLSCRASQSVSAYYLAWYQQKPGQAPRLLMYDASIRATGIPDRFSGSGSGTDFTLTISRLEPEDFAVYYCQQYERWPLTFGQGTKVEIKRTVAAPSVFIFPPSDRKLKSGTASVVCLLNNFYPREAKVQWKVDNALQSGNSQESVTEQDSKDSTYSLSSTLTLSKADYEKHKVYACEVTHQGLSSPVTKSFNRGEC
light 2: B1 light 2 with Q28T, S31T, T102G, T103N, P105G, S106N, Y111W, Y112F, G113A
heavy 1: EVQLLESGGGLVQPGGSLRLSCAASGFTFSSYAMNWVRQAPGKGLEWVSAITASGGSTYYADSVKGRFTISRDNSKNTLYLQMNSLRAEDTAVYYCARYWPMSLWGQGTLVTVSSASTKGPSVFPLAPSSKSTSGGTAALGCLVEDYFPEPVTVSWNSGALTSGVHTFPAVLQSSGLYSLSSVVTVPSSSLGTQTYICNVNHKPSNTKVDEKVEPKSCDKTHTCPPCPAPEAAGGPSVFLFPPKPKDTLMISRTPEVTCVVVDVSHEDPEVKFNWYVDGVEVHNAKTKPREEQYNSTYRVVSVLTVLHQDWLNGKEYKCKVSNKALGAPIEKTISKAKGQPREPQVCTLPPSRDELTKNQVSLSCAVKGFYPSDIAVEWESNGQPENNYKTTPPVLDSDGSFFLVSKLTVDKSRWQQGNVFSCSVMHEALHNHYTQKSLSLSPGK
heavy 2: not shown
- EC50 in vitro killing assay, AMO-1 (BCMA [15]): 0.518 nM
- EC50 in vitro killing assay, EJM (BCMA [15]): 0.132 nM
- EC50 in vitro killing assay, L363 (BCMA [15]): 0.127 nM
- EC50 in vitro killing assay, MOLP-2 (BCMA [15]): 0.032 nM
- EC50 in vitro killing assay, NCI-H929 (BCMA [15]): 0.311 nM
- EC50 in vitro killing assay, OPM-2 (BCMA [15]): 0.033 nM
- EC50 in vitro killing assay, RPMI (BCMA [15]): 0.011 nM
- EC50 (pM), TCB-mediated tumor cell lysis, AMO-1 (BCMA [16]): 137 pM
- EC50 (pM), TCB-mediated tumor cell lysis, IM-9 (BCMA [16]): 55.7 pM
- EC50 (pM), TCB-mediated tumor cell lysis, LP-1 (BCMA [16]): 76.4 pM
- EC50 (pM), TCB-mediated tumor cell lysis, NCI-H929 (BCMA [16]): 171 pM
- AUC, TCB-mediated tumor cell lysis, AMO-1 (BCMA [17]): 4.73e+07
- AUC, TCB-mediated tumor cell lysis, IM-9 (BCMA [17]): 1.1e+07
- AUC, TCB-mediated tumor cell lysis, LP-1 (BCMA [17]): 1.11e+07
- AUC, TCB-mediated tumor cell lysis, NCI-H929 (BCMA [17]): 1.07e+07
- EC50 (pM), activation of autologous T-cells (CD69 on CD8 T cells) with a primary MM sample (BCMA [18]): 52.5 pM
